Like-named read-outs stand apart in the source and are kept apart here.

Results on 14 molecules are retold here after patent US20220298244A1 (BEIJING MABWORKS BIOTECH, published 2022).

For assay [1], the target named is T1, monkey PD-L1 expressed on HEK293A cells (monkey (cynomolgus), UniProt Q9NZQ7 19-290 (human entry)).
T1 construct: Full-length cDNA expressed stably; also called HEK293A/monkey PD-L1 cells; HEK293A/monkey PD-L1
The assay can be described thus: FACS on HEK293A/monkey PD-L1 cells, serially diluted antibody (protocol of Example 4).

For assay [2], the target named is T2, human PD-L1 expressed on HEK293A cells (human, UniProt Q9NZQ7 19-290).
T2 construct: Full-length cDNA expressed stably; also called HEK293A/human PD-L1 cells; HEK293A/human PD-L1
T2 sequence (Q9NZQ7 19-290 limits assumed): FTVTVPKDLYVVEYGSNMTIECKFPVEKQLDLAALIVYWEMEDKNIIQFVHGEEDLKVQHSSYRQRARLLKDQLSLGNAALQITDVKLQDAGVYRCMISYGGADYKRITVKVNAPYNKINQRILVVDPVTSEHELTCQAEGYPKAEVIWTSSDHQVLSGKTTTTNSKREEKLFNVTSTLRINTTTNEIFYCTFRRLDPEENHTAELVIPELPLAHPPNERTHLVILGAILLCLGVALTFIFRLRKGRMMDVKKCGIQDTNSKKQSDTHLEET
Description: FACS on cells, serially diluted antibody (protocol of Example 4); legend paragraph 38 gives panel A as HEK293A/human PD-L1 cells, but the title printed on the sheet reads HEK293A/monkey PDL1.

Assay [3] addresses T2, human PD-L1 expressed on HEK293A cells. Description: FACS on HEK293A/human PD-L1 cells, serially diluted antibody (protocol of Example 4).
Assay [4] addresses T1, monkey PD-L1 expressed on HEK293A cells. Description: FACS on HEK293A/monkey PD-L1 cells, serially diluted antibody (protocol of Example 4). This is another data set of the same source.

T1 sequence (Q9NZQ7 other isoform, or with tags, fused parts or gaps limits assumed): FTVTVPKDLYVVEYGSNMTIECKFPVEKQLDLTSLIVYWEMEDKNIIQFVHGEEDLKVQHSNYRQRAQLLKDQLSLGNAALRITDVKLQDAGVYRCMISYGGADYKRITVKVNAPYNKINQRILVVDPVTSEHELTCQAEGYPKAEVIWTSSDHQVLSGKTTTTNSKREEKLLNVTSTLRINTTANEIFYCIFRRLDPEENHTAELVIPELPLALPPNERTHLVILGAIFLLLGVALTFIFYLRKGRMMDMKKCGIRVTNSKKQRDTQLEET

B1: 56E5VH2VL4 (antibody, human IgG1, kappa, N297A, V domains shown)
VH: QVQLQESGPGLVKPSQTLSLTCTVSGGSITSDYWNWIRQHPGKGLEYMGYISYTGSTYYNPSLKSRVTITVDTSKNQFSLKLSSVTTADTAVYYCARYRDWDVRAMDYWGQGTTVTVSS
VL: DIVMTQSPDSLAVSLGEKVTMNCKSSQSLLISGNQKNFLTWYQQKPGQPPKLLIYWASTRESGVPDRFSGSGSGTDFTLTISSLQAEDLAVYYCQNDFGFPFTFGQGTKVEIKR
notes: humanized 56E5 antibody
As for B1, the binding result in assay [1] and in assay [2] was “binds” in each case.

B2: 56E5VH4VL4 (antibody, human IgG1, kappa, N297A, V domains shown)
VH: QVQLQESGPGLVKPSQTLSLTCTVSGGSITSDYWNWIRQHPGNKLEYMGYISYTGSTYYNPSLKSRVTITRDTSKNQFSLKLSSVTTADTAVYYCARYRDWDVRAMDYWGQGTTVTVSS
VL: DIVMTQSPDSLAVSLGEKVTMNCKSSQSLLISGNQKNFLTWYQQKPGQPPKLLIYWASTRESGVPDRFSGSGSGTDFTLTISSLQAEDLAVYYCQNDFGFPFTFGQGTKVEIKR
notes: humanized 56E5 antibody
Take B2: the binding result in assay [1] and in assay [2] was “binds” each time.

B3: 56E5VH3VL4 (antibody, human IgG1, kappa, N297A, V domains shown)
VH: QVQLQESGPGLVKPSQTLSLTCTVSGGSITSDYWNWIRQHPGNKLEYMGYISYTGSTYYNPSLKSRVTITVDTSKNQFSLKLSSVTTADTAVYYCARYRDWDVRAMDYWGQGTTVTVSS
VL: DIVMTQSPDSLAVSLGEKVTMNCKSSQSLLISGNQKNFLTWYQQKPGQPPKLLIYWASTRESGVPDRFSGSGSGTDFTLTISSLQAEDLAVYYCQNDFGFPFTFGQGTKVEIKR
notes: humanized 56E5 antibody
Take B3: the binding result in assay [1] and in assay [2] was “binds” in each case.

B4: 3C2VH3VL3 (antibody, human IgG1, kappa, N297A, V domains shown)
VH: QVQLVQSGAEVKKPGASVKVSCKASGYTFTDYHVNWVKQRPGQGLEWIGWIFPGSGRTFYTDKFKGRVTLTVDTSTSTVYMELSSLTSEDTAVYYCATDYGTSGYGLVYWGQGTTVTVSS
VL: DIQMTQSPSSLSASVGDRVTISCKASDRINNWLAWYQQKPGNAPRLLISGATSLETGVPSRFSGSGSGTDYTFTISSLQPEDIATYYCQQYWNIPFTFGQGTKVEIKR
notes: humanized 3C2 antibody
For B4, the binding result in assay [3] and in assay [4] was “binds” each time.

B5: 3C2VH2VL3 (antibody, human IgG1, kappa, N297A, V domains shown)
VH: QVQLVQSGAEVKKPGASVKVSCKASGYTFTDYHVNWVRQAPGQGLEWIGWIFPGSGRTFYTDKFKGRVTLTVDTSTSTVYMELSSLTSEDTAVYYCATDYGTSGYGLVYWGQGTTVTVSS
VL: DIQMTQSPSSLSASVGDRVTISCKASDRINNWLAWYQQKPGNAPRLLISGATSLETGVPSRFSGSGSGTDYTFTISSLQPEDIATYYCQQYWNIPFTFGQGTKVEIKR
notes: humanized 3C2 antibody
B5: the binding result in assay [3] and in assay [4] was “binds” in each case.

B6: 3C2VH4VL2 (antibody, human IgG1, kappa, N297A, V domains shown)
VH: QVQLVQSGAEVKKPGASVKVSCKASGYSFTDYHVNWVKQRPGQGLEWIGWIFPGSGRTFYTDKFKGRVTLTVDTSTSTVYMELSSLTSEDTAVYFCATDYGTSGYGLVYWGQGTTVTVSS
VL: DIQMTQSPSSLSASVGDRVTITCKASDRINNWLAWYQQKPGKAPRLLISGATSLETGVPSRFSGSGSGTDYTFTISSLQPEDIATYYCQQYWNIPFTFGQGTKVEIKR
notes: humanized 3C2 antibody
For B6, the binding result in assay [3] and in assay [4] was “binds” in each case.

B7: 3C2VH2VL4 (antibody, human IgG1, kappa, N297A, V domains shown)
VH: QVQLVQSGAEVKKPGASVKVSCKASGYTFTDYHVNWVRQAPGQGLEWIGWIFPGSGRTFYTDKFKGRVTLTVDTSTSTVYMELSSLTSEDTAVYYCATDYGTSGYGLVYWGQGTTVTVSS
VL: DIQMTQSPSSLSASVGDRVTISCKASDRINNWLAWYQQKPGNAPRLLISGATSLETGVPSRFSGSGSGTDYTFTISSLQPEDIAVYYCQQYWNIPFTFGQGTKVEIKR
notes: humanized 3C2 antibody
Take B7: the binding result in assay [3] and in assay [4] was “binds” throughout.

B8: 3C2VH4VL3 (antibody, human IgG1, kappa, N297A, V domains shown)
VH: QVQLVQSGAEVKKPGASVKVSCKASGYSFTDYHVNWVKQRPGQGLEWIGWIFPGSGRTFYTDKFKGRVTLTVDTSTSTVYMELSSLTSEDTAVYFCATDYGTSGYGLVYWGQGTTVTVSS
VL: DIQMTQSPSSLSASVGDRVTISCKASDRINNWLAWYQQKPGNAPRLLISGATSLETGVPSRFSGSGSGTDYTFTISSLQPEDIATYYCQQYWNIPFTFGQGTKVEIKR
notes: humanized 3C2 antibody
As for B8, the binding result in assay [3] and in assay [4] was “binds” in each case.

B9: 3C2VH5VL4 (antibody, human IgG1, kappa, N297A, V domains shown)
VH: QVQLVQSGAEVKKPGASVKVSCKASGYSFTDYHVNWVKQRPGQGLEWIGWIFPGSGRTFYTDKFKGKATLTVDTSTSTVYMELSSLTSEDTAVYFCATDYGTSGYGLVYWGQGTTVTVSS
VL: DIQMTQSPSSLSASVGDRVTISCKASDRINNWLAWYQQKPGNAPRLLISGATSLETGVPSRFSGSGSGTDYTFTISSLQPEDIAVYYCQQYWNIPFTFGQGTKVEIKR
notes: humanized 3C2 antibody
With B9, the binding result in assay [3] and in assay [4] was “binds” each time.

B10: 3C2VH5VL3 (antibody, human IgG1, kappa, N297A, V domains shown)
VH: QVQLVQSGAEVKKPGASVKVSCKASGYSFTDYHVNWVKQRPGQGLEWIGWIFPGSGRTFYTDKFKGKATLTVDTSTSTVYMELSSLTSEDTAVYFCATDYGTSGYGLVYWGQGTTVTVSS
VL: DIQMTQSPSSLSASVGDRVTISCKASDRINNWLAWYQQKPGNAPRLLISGATSLETGVPSRFSGSGSGTDYTFTISSLQPEDIATYYCQQYWNIPFTFGQGTKVEIKR
notes: humanized 3C2 antibody
For the molecule B10, the binding result in assay [3] and in assay [4] was “binds” throughout.

B11: 3C2VH5VL2 (antibody, human IgG1, kappa, N297A, V domains shown)
VH: QVQLVQSGAEVKKPGASVKVSCKASGYSFTDYHVNWVKQRPGQGLEWIGWIFPGSGRTFYTDKFKGKATLTVDTSTSTVYMELSSLTSEDTAVYFCATDYGTSGYGLVYWGQGTTVTVSS
VL: DIQMTQSPSSLSASVGDRVTITCKASDRINNWLAWYQQKPGKAPRLLISGATSLETGVPSRFSGSGSGTDYTFTISSLQPEDIATYYCQQYWNIPFTFGQGTKVEIKR
notes: humanized 3C2 antibody
Turning to B11, the binding result in assay [3] and in assay [4] was “binds” throughout.

B12: 3C2VH2VL2 (antibody, human IgG1, kappa, N297A, V domains shown)
VH: QVQLVQSGAEVKKPGASVKVSCKASGYTFTDYHVNWVRQAPGQGLEWIGWIFPGSGRTFYTDKFKGRVTLTVDTSTSTVYMELSSLTSEDTAVYYCATDYGTSGYGLVYWGQGTTVTVSS
VL: DIQMTQSPSSLSASVGDRVTITCKASDRINNWLAWYQQKPGKAPRLLISGATSLETGVPSRFSGSGSGTDYTFTISSLQPEDIATYYCQQYWNIPFTFGQGTKVEIKR
notes: humanized 3C2 antibody
Take B12: the binding result in assay [3] and in assay [4] was “binds” each time.

B13: 3C2VH3VL4 (antibody, human IgG1, kappa, N297A, V domains shown)
VH: QVQLVQSGAEVKKPGASVKVSCKASGYTFTDYHVNWVKQRPGQGLEWIGWIFPGSGRTFYTDKFKGRVTLTVDTSTSTVYMELSSLTSEDTAVYYCATDYGTSGYGLVYWGQGTTVTVSS
VL: DIQMTQSPSSLSASVGDRVTISCKASDRINNWLAWYQQKPGNAPRLLISGATSLETGVPSRFSGSGSGTDYTFTISSLQPEDIAVYYCQQYWNIPFTFGQGTKVEIKR
notes: humanized 3C2 antibody
For B13, the binding result in assay [3] and in assay [4] was “binds” each time.

B14: 3C2VH3VL2 (antibody, human IgG1, kappa, N297A, V domains shown)
VH: QVQLVQSGAEVKKPGASVKVSCKASGYTFTDYHVNWVKQRPGQGLEWIGWIFPGSGRTFYTDKFKGRVTLTVDTSTSTVYMELSSLTSEDTAVYYCATDYGTSGYGLVYWGQGTTVTVSS
VL: DIQMTQSPSSLSASVGDRVTITCKASDRINNWLAWYQQKPGKAPRLLISGATSLETGVPSRFSGSGSGTDYTFTISSLQPEDIATYYCQQYWNIPFTFGQGTKVEIKR
notes: humanized 3C2 antibody
With B14, the binding result in assay [3] and in assay [4] was “binds” each time.
